Target: taxol-stabilized microtubules polymerized in Xenopus egg extract (Xenopus (endogenous in Xenopus egg extract))
Experiment: co-sedimentation

**Q.** For “X-p21-activated kinase (PAK)5, endogenous (natural protein)”, which percent bound is on record?
**A.** < 70%
